The target of this assay is KillerOrange. The assay is described as follows: crystal structure; KillerOrange; hanging drop vapor diffusion at 20°C; ~22 mg/ml protein in 20 mM Tris pH 8.0, 200 mM NaCl; reservoir 0.02M Na acetate pH 5.0, 1% gamma-PGA, 3% PEG 4K; data at 100 K.

This note sets out measurements from paper PMC4689385.

What is called stoichiometry N is a count of units in the complex or per binding partner. Take KillerOrange: the stoichiometry N came to 2.
